Assay results: patent US20240076384A1 (DRAGONFLY THERAPEUTICS, published 2024)
Numbering of substitutions follows the chain as printed.

T1: human NKG2D expressed on EL4 cells (human, UniProt P26718 1-216)
T1 construct: whole, on cells; also called NKG2D on EL4 cells; extracellular NKG2D expressed on EL4 cells
T1 sequence (looked up): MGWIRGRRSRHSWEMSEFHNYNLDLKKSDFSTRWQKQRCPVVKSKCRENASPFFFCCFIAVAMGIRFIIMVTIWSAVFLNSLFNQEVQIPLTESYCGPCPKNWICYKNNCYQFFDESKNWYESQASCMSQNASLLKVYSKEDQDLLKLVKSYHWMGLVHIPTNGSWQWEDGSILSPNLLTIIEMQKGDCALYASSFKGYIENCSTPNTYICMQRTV

T2: ULBP6 (NKG2D natural ligand) (Homo sapiens (Human), UniProt Q5VY80 26-218)
T2 sequence: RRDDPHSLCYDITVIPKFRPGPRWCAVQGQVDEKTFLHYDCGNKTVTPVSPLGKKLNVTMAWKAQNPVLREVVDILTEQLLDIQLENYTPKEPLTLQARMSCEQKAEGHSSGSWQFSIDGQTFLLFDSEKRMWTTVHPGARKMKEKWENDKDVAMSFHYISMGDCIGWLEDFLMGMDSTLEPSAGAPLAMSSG

B1: CD33-TriNKET-A44 (ADI-27744 and a CD33 binding domain) (bispecific antibody, V domains shown)
VH 1: not shown
VL 1: DIQMTQSPSSVSASVGDRVTITCRASQGIDSWLAWYQQKPGKAPKLLIYAASSLQSGVPSRFSGSGSGTDFTLTISSLQPEDFATYYCQQGVSYPRTFGGGTKVEIK
VH 2: QVQLVQSGAEVKKPGASVKVSCKASGYTFTDYVVHWVRQAPGQGLEWMGYINPYNDGTKYNEKFKGRVTMTRDTSISTAYMELSRLRSDDTAVYYCARDYRYEVYGMDYWGQGTLVTVSS
VL 2: DIVLTQSPASLAVSPGQRATITCTASSSVNYIHWYQQKPGQPPKLLIYDTSKVASGVPARFSGSGSGTDFTLTINPVEANDTANYYCQQWRSYPLTFGQGTKLEIK
B2: NKG2D monoclonal antibody comprising ADI-27744 (antibody, V domains shown)
VH: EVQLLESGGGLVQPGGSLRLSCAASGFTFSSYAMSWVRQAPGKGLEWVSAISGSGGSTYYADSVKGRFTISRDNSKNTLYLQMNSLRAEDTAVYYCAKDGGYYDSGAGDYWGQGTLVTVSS
VL: B1 VL 1
notes: also called A44
B3: NKG2D monoclonal antibody comprising ADI-27749 (antibody, V domains shown)
VH: EVQLVESGGGLVKPGGSLRLSCAASGFTFSSYSMNWVRQAPGKGLEWVSSISSSSSYIYYADSVKGRFTISRDNAKNSLYLQMNSLRAEDTAVYYCARGAPMGAAAGWFDPWGQGTLVTVSS
VL: B1 VL 1 with D30S, Y94F
notes: also called A49
B4: CD33-TriNKET-A49 (ADI-27749 and a CD33 binding domain) (bispecific antibody, V domains shown)
VH 1: B3 VH
VL 1: B1 VL 1 with D30S, Y94F
VH 2: B1 VH 2
VL 2: B1 VL 2
B5: CD33-TriNKET-F63 (ADI-29463 and a CD33 binding domain) (bispecific antibody, V domains shown)
VH 1: not shown
VL 1: EIVLTQSPGTLSLSPGERATLSCRASQSVSSNLAWYQQKPGQAPRLLIYGASTRATGIPARFSGSGSGTEFTLTISSLQSEDFAVYYCQQDDYWPPTFGGGTKVEIK
VH 2: B1 VH 2
VL 2: B1 VL 2
B6: soluble mouse Fc-human NKG2D dimer (Fc fusion, UniProt P26718 78-216, looked up)
chain: FLNSLFNQEVQIPLTESYCGPCPKNWICYKNNCYQFFDESKNWYESQASCMSQNASLLKVYSKEDQDLLKLVKSYHWMGLVHIPTNGSWQWEDGSILSPNLLTIIEMQKGDCALYASSFKGYIENCSTPNTYICMQRTV
notes: also called mFc-hNKG2D; fusion protein of human NKG2D and murine Fc; not shown: mouse (murine) Fc
B7: Human monoclonal antibody containing NKG2D-binding domain ADI-29379 (antibody, V domains shown)
VH: QVQLVQSGAEVKKPGASVKVSCKASGYTFTSYYMHWVRQAPGQGLEWMGIINPSGGSTSYAQKFQGRVTMTRDTSTSTVYMELSSLRSEDTAVYYCARGAPNYGDTTHDYYYMDVWGKGTTVTVSS
VL: B5 VL 1 with L4M, G9A, L13V, D91Y, Y93D, P96F
notes: Tested as a human monoclonal antibody; also called E79; ADI-29379 (E79)
B8: Human monoclonal antibody containing NKG2D-binding domain ADI-29378 (antibody, V domains shown)
VH: QVQLVQSGAEVKKPGASVKVSCKASGYTFTSYYMHWVRQAPGQGLEWMGIINPSGGSTSYAQKFQGRVTMTRDTSTSTVYMELSSLRSEDTAVYYCAREGAGFAYGMDYYYMDVWGKGTTVTVSS
VL: B5 VL 1 with G9A, N32Y, G50D, T53N, E70D, Q79E, S80P, D91S, Y93N, P96F
notes: Tested as a human monoclonal antibody; also called E78; ADI-29378 (E78)
B9: NKG2D monoclonal antibody comprising F47 (antibody, V domains shown)
VH: QVQLQQWGAGLLKPSETLSLTCAVYGGSFSGYYWSWIRQPPGKGLEWIGEIDHSGSTNYNPSLKSRVTISVDTSKNQFSLKLSSVTAADTAVYYCARARGPWSFDPWGQGTLVTVSS
VL: DIQMTQSPSTLSASVGDRVTITCRASQSISSWLAWYQQKPGKAPKLLIYKASSLESGVPSRFSGSGSGTEFTLTISSLQPDDFATYYCQQYDTFITFGGGTKVEIK
notes: Monoclonal antibody

Assays:
[1] = target: T1, human NKG2D expressed on EL4 cells; assay: flow cytometry on EL4 cells expressing NKG2D, anti-human IgG secondary, fold over background against parental EL4 cells
Experimental: EL4 mouse lymphoma cell lines were engineered to express human NKG2D. […] The binding of the multispecific binding proteins to NKG2D was detected using fluorophore-conjugated anti-human IgG secondary antibodies. Cells were analyzed by flow cytometry, and fold-over-background (FOB) was calculated using the mean fluorescence intensity (MFI) of NKG2D expressing cells compared to parental EL4 cells.

[2] = target: T3, CD33 expressed on human AML cell line MV4-11 (human, UniProt P20138 18-364); assay: flow cytometry on Mv4-11 cells, anti-human IgG secondary, fold over background against secondary antibody control
T3 construct: whole, on cells; also called CD33 expressed on Mv4-11 cells
Experimental: Human AML cell line MV4-11, expressing CD33 was used to assay the binding of TriNKETs to the tumor-associated antigen. TriNKETs and the parental CD33 monoclonal antibody were incubated with the cells, and the binding was detected using fluorophore-conjugated anti-human IgG secondary antibodies. Cells were analyzed by flow cytometry, and fold-over-background (FOB) was calculated using the mean fluorescence intensity (MFI) from TriNKETs and the parental monoclonal CD33 antibody normalized to secondary antibody controls.

[3] = target: B6; assay: SPR (Biacore 8K); lower end of the group's range, tied to ADI-27744 by Table 9
Experimental: (§1) Kinetics and affinity of various NKG2D-binding domains were assessed by surface plasmon resonance using Biacore 8K instrument (GE Healthcare). Anti-human Fc antibody was immobilized on a CM5 chip using standard amine coupling chemistry. Human monoclonal antibodies containing various NKG2D-binding domains were captured on the anti-human Fc chip at a density of approximately 100 RU. Solutions containing 0.411-100 nM soluble mouse Fc-human NKG2D dimers were injected over the captured NKG2D antibodies and control surfaces at 30 μl/min at 37° C. Surfaces were regenerated between cycles by quick injection of 10 mM glycine, pH 1.8. To obtain kinetic rate constants, double-referenced data were fit to a 1:1 interaction model using Biacore 8K Evaluation software (GE Healthcare). The equilibrium binding constant KD was determined by the ratio of dissociation constant kd and association constant kₐ (kd/kₐ).

[4] = target: B6; assay: SPR (Biacore 8K), antibody captured on anti-human Fc, soluble mouse Fc-human NKG2D dimer as analyte, 37 C, 1:1 fit
Experimental: as §1

[5] = target: B6; assay: SPR (Biacore 8K), antibody captured on anti-human Fc, soluble mouse Fc-human NKG2D dimer as analyte, 37 C, kd/ka
Experimental: as §1

[6] = target: T2, ULBP6 (NKG2D natural ligand); assay: SPR (Biacore 8K, 25 C), captured mouse Fc-human NKG2D, consecutive injections; ULBP6 injected after A44 (ADI-27744 antibody) was bound
From the text: (§2) Briefly, mouse Fc-human NKG2D was captured using an anti-mouse Fc antibody immobilized on a CM5 chip at a density of approximately 100 RU. […] Biacore 8K evaluation software was used for all data analysis.

[7] = target: B6; assay: SPR (Biacore 8K, 25 C), captured mouse Fc-human NKG2D, consecutive injections; F47 injected after A44 was bound
From the text: as §2

T3 sequence (P20138 18-364): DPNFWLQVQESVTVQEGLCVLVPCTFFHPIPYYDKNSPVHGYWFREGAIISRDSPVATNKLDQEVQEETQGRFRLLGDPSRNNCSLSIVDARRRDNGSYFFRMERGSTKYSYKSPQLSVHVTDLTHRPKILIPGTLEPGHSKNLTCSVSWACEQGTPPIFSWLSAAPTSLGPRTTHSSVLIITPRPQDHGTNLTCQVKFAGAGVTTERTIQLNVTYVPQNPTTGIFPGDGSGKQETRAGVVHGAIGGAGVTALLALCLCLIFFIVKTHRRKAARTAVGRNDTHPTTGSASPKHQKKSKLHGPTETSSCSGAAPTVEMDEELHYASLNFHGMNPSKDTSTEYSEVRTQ

| Binder | binding result [2] | koff [4] [s⁻¹] | kon [4] [M⁻¹ s⁻¹] | Kd [5] [nM] | also measured |
| --- | --- | --- | --- | --- | --- |
| B1 | binds | – | – | – | binding result [1]: binds |
| B2 | – | 0.00299 | 295000 | 10.1 | Kd [3]: 10 to 62 nM |
| B3 | – | 0.00489 | 395000 | 12.4 | – |
| B4 | binds | – | – | – | binding result [1]: binds |
| B5 | binds | – | – | – | – |
| B6 | – | – | – | – | binding result [6]: binds |
| B7 | – | 0.0225 | 443000 | 50.7 | – |
| B8 | – | 0.0487 | 832000 | 58.5 | – |
| B9 | – | – | – | – | binding result [7]: binds |
